Laboratory results reported in patent EP0651055A2 (priority 1993, dated 1995).

What was measured:
CC(=O)SCCC(C)(C)C = test: purified protein, by the assay type; settings: sodium-phosphate buffer pH 8, 27°C
CC(=O)SCC[N+](C)(C)C = test: purified protein, by the assay type; settings: sodium-phosphate buffer pH 8, 27°C

recombinant HuAChE mutant Phe338Ala (Homo sapiens; F369A)
Km (CC(=O)SCCC(C)(C)C; other: Phe338Ala): 300 ± 70 µM | Km (CC(=O)SCC[N+](C)(C)C; other: Phe338Ala): 240 ± 20 µM

recombinant HuAChE mutant Glu450Ala (Homo sapiens; E481A)
Km (CC(=O)SCCC(C)(C)C; other: Glu450Ala): 200 ± 40 µM | Km (CC(=O)SCC[N+](C)(C)C; other: Glu450Ala): 350 ± 40 µM

recombinant HuAChE mutant Tyr337Ala (Homo sapiens; Y368A)
Km (CC(=O)SCCC(C)(C)C; other: Tyr337Ala): 200 ± 30 µM | Km (CC(=O)SCC[N+](C)(C)C; other: Tyr337Ala): 100 ± 10 µM

recombinant HuAChE mutant Glu202Gln (Homo sapiens; E233Q)
Km (CC(=O)SCCC(C)(C)C; other: Glu202Gln): 230 ± 30 µM | Km (CC(=O)SCC[N+](C)(C)C; other: Glu202Gln): 350 ± 40 µM
